PMC2928679 (The EMBO Journal, 2010)

Biological target: GST-USP7 (human, UniProt Q93009-1 1-1102)
Assay: pull-down

Chain of GST-USP7 (Q93009 whole entry): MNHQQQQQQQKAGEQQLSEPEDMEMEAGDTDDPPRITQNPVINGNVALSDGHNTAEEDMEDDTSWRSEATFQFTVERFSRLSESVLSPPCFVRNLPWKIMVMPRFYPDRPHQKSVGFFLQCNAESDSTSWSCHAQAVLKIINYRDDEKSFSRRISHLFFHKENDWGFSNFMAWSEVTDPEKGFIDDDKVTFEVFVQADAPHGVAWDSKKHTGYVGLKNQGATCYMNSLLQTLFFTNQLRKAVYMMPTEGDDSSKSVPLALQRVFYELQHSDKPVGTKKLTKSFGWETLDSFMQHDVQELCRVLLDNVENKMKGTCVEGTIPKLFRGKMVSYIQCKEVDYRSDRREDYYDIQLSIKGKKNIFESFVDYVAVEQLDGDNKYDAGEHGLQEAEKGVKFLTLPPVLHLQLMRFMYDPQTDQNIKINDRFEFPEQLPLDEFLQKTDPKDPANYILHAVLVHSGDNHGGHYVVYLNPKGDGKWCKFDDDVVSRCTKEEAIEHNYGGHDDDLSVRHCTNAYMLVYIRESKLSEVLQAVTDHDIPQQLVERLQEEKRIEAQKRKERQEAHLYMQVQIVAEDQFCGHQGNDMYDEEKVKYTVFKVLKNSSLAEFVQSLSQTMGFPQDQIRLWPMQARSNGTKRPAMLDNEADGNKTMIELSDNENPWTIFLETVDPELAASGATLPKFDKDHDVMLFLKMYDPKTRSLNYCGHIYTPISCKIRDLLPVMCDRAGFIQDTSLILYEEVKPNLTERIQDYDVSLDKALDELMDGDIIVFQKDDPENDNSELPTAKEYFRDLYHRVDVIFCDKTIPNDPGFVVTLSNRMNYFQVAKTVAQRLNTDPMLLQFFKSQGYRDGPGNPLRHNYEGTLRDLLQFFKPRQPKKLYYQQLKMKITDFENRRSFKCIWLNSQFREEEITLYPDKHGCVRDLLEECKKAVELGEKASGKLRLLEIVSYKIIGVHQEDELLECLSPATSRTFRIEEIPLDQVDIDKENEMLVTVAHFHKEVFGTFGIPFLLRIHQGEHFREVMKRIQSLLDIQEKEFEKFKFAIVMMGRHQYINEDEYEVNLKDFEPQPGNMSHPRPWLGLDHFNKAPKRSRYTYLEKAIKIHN

B1: CBX8-Flag purified from bacteria (natural protein)
chain: MELSAVGERVFAAEALLKRRIRKGRMEYLVKWKGWSQKYSTWEPEENILDARLLAAFEEREREMELYGPKKRGPKPKTFLLKAQAKAKAKTYEFRSDSARGIRIPYPGRSPQDLASTSRAREGLRNMGLSPPASSTSTSSTCRAEAPRDRDRDRDRDRERDRERERERERERERERERERGTSRVDDKPSSPGDSSKKRGPKPRKELPDPSQRPLGEPSAGLGEYLKGRKLDDTPSGAGKFPAGHSVIQLARRQDSDLVQCGVTSPSSAEATGKLAVDTFPARVIKHRAAFLEAKGQGALDPNGTRVRHGSGPPSSGGGLYRDMGAQGGRPSLIARIPVARILGDPEEESWSPSLTNLEKVVVTDVTSNFLTVTIKESNTDQGFFKEKR
  binding result: binds

B2: FlagHis12-tagged mouse Ring1b (natural protein)
chain: MSQAVQTNGTQPLSKTWELSLYELQRTPQEAITDGLEIVVSPRSLHSELMCPICLDMLKNTMTTKECLHRFCADCIITALRSGNKECPTCRKKLVSKRSLRPDPNFDALISKIYPSRDEYEAHQERVLARINKHNNQQALSHSIEEGLKIQAMNRLQRGKKQQIENGSGAEDNGDSSHCSNASTHSNQEAGPSNKRTKTSDDSGLELDNNNAAVAIDPVMDGASEIELVFRPHPTLMEKDDSAQTRYIKTSGNATVDHLSKYLAVRLALEELRSKGESNQMNLDTASEKQYTIYIATASGQFTVLNGSFSLELVSEKYWKVNKPMELYYAPTKEHK
  binding result: binds

B3: FlagHis12-tagged mouse Mel18 (natural protein)
chain: MHRTTRIKITELNPHLMCALCGGYFIDATTIVECLHSFCKTCIVRYLETNKYCPMCDVQVHKTRPLLSIRSDKTLQDIVYKLVPGLFKDEMKRRRDFYAAYPLTEVPNGSNEDRGEVLEQEKGALGDDEIVSLSIEFYEGVRDREEKKNLTENGDGDKEKTGVRFLRCPAAMTVMHLAKFLRNKMDVPSKYKVEILYEDEPLKEYYTLMDIAYIYPWRRNGPLPLKYRVQPACKRLTLPTVPTPSEGTNTSGASECESVSDKAPSPATLPATSSSLPSPATPSHGSPSSHGPPATHPTSPTPPSTAAGTTTATNGGTSNCLQTPSSTSRGRKMTVNGAPCPP
  binding result: binds

B4: FlagHis12-tagged mouse Bmi1 (natural protein)
chain: MHRTTRIKITELNPHLMCVLCGGYFIDATTIIECLHSFCKTCIVRYLETSKYCPICDVQVHKTRPLLNIRSDKTLQDIVYKLVPGLFKNEMKRRRDFYAAHPSADAANGSNEDRGEVADEEKRIITDDEIISLSIEFFDQSRLDRKVNKEKPKEEVNDKRYLRCPAAMTVMHLRKFLRSKMDIPNTFQIDVMYEEEPLKDYYTLMDIAYIYTWRRNGPLPLKYRVRPTCKRMKMSHQRDGLTNAGELESDSGSDKANSPAGGVPSTSSCLPSPSTPVQSPHPQFPHISSTMNGTSNSPSANHQSSFASRPRKSSLNGSSATSSG
  binding result: binds
